The target in this data set is AR9 nvRNAP promoter-specificity subunit gp226 (sigma-like);AR9 nvRNAP betaN subunit gp105;AR9 nvRNAP betaC … (Bacillus phage AR9 (Bacillus subtilis …, UniProt A0A172JIC8;A0A172JI16;A0A172JHZ2;A0A172JIH0;A0A172JI62 …, ||||)). Nature of the data set: X-ray crystallography; crystals from 150 mM MIB pH 5, 150 mM LiCl, 13% PEG 1500; 4 mM MgCl2 in DNA annealing buffer; Complex for structures: 34 uM holoenzyme + 50 uM DNA, 30 min at room temperature; DNA annealed in 20 mM Bis-tris propane pH 6.8, 100 mM NaCl, 4 mM MgCl2, 0.5 mM EDTA; crystallized at 19 C. Conditions: protein: recombinant;recombinant;recombinant;recombinant;recombinant; tags: ;;;;; copies: 1;1;1;1;1; 14 bp duplex with 18 nt 3' overhang on strand 1.

B1: P077 promoter forked oligonucleotide, template [-16;+16] all U / non-template [+3;+16] (dsDNA)
DNA 1: CTCCAATATGTGATATAATATAUUGUUUATTG
DNA 2: ATCACATATTGGAG
modifications: deoxyuridine at the printed U positions of strand 1; both strands DNA
Turning to B1, the binding result is “binds”.

Values taken from paper PMC9209446, “Structural basis of template strand deoxyuridine promoter recognition by a viral RNA polymerase”.
